Measured values: PMC9710872

Molecular target: SARS-CoV-2 spike (S) protein, unlabelled (ACROBiosystems) (SARS-CoV-2) (UniProt P0DTC2)
Assay: SPR

## recombinant NRP1 (ACROBiosystems), SPR analyte (from UniProt O14786) (natural protein)
  Kd: 89.4 nM
